From patent publication US20170096493A1 (EISAI R AND D MANAGEMENT, published 2017)
Each block holds one binder with its values, some of them ahead of it.

Columns and labels:
[1] = target: T1, Human Notch4-NRR domain Fc fusion protein (human, UniProt Q99466 1046-1445, limits assumed); assay: SPR (Biacore) as for Table 30; Notch4-NRR-Fc captured, antibody injected; averaged, N=9
T1 construct: Expressed in a CHO cell line, used from culture supernatant; 1 is named; also called Human Notch4-NRR Fusion Protein; not shown: Fc
T1 sequence: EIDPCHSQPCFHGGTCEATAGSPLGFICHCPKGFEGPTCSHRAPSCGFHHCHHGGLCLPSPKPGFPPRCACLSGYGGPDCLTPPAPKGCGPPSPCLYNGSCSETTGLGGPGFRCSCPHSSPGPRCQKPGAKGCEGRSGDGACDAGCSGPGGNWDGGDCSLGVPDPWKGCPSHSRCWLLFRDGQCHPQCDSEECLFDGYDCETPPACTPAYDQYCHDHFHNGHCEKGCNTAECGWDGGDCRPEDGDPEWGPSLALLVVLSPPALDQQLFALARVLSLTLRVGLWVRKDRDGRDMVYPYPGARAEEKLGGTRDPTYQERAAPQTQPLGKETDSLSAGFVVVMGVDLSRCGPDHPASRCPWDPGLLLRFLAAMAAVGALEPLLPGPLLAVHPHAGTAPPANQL
Experimental: (§1) Kinetic analysis of further anti-Notch4 inhibitory humanized antibodies was carried out as follows. Human Notch4-NRR domain Fc fusion proteins were expressed with a CHO cell line. The antigen in the culture supernatant was captured by the anti-human Notch4 antibody fixed on a CM5 sensor chip that recognizes different epitopes of human Notch4. The humanized anti-human Notch4 antibody was then injected onto the sensor chip at various concentrations. The interaction and disassociation constants thereof were calculated according to manufacturer's instructions.

[2] = target: T2, Notch4 with a part of the intracellular domain substituted with GAL4 DNA binding domain, on b.end3 reporter …; assay: cell-based or functional assay
[3] = target: T2, Notch4 with a part of the intracellular …; assay: cell-based or functional assay; remark: listed apart in the source
[4] = target: T3, Mouse Notch4-NRR domain fused with SEAP and 10× histidine tag (mouse, UniProt P31695 1042-1441); assay: SPR (Biacore); antibody captured by anti-human IgG Fc on CM5, Notch4-NRR-SEAP-His injected
T3 construct: domain: Notch4-NRR domain; not shown: secretory alkaline phosphatase (SEAP); 10x histidine tag
T3 sequence (looked up): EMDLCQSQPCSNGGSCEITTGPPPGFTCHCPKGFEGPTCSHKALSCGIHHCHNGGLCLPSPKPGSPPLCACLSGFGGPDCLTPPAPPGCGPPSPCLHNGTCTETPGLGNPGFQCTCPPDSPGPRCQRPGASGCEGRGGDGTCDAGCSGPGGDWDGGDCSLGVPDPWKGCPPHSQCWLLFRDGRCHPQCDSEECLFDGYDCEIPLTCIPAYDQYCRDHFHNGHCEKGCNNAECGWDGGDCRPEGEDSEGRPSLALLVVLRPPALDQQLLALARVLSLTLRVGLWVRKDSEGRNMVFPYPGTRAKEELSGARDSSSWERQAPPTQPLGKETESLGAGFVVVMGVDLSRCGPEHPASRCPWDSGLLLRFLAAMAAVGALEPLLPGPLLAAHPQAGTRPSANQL
Experimental: (§2) Kinetic analysis of the interaction of human, cynomolgus monkey, mouse, and rat Notch4-NRR domains with Antibody B was carried out with BIACORE. […] The genes for these proteins were transfected into Expi293F cells in Opti-MEM (INVITROGEN) using ExpiFectamine 293. These cells were cultured in Expi293 Expression Medium (INVITROGEN). Briefly, cells were diluted to 7.5×10⁷ cells/25.5 mL, and transfected by ExpiFectamine 293 reagent on Day 0. About 16 hours after transfection, 150 uL of ExpiFectamine 293 Transfection Enhancer 1 and 1.5 mL of ExpiFectamine 293 Transfection Enhancer 2 were added to each flask. The supernatant was collected on Day 4. These antigens were purified with Ni-NTA Superflow column (QIAGEN). The interaction was analyzed as below. The purified Antibody B was captured by anti-human IgG Fc antibody fixed on a CM5 sensor chip (GE healthcare). The purified Notch4-NRR fusion proteins were injected onto the sensor chip at 8 different concentrations, and the interaction and dissociation thereof were observed as per manufacturer's instructions.

[5] = target: T4, Cynomolgus monkey Notch4-NRR domain fused with SEAP and 10× histidine tag (cynomolgus monkey, UniProt P05187 23-511 (human entry)); assay: as above
T4 construct: not shown: 10x histidine tag
T4 sequence (P05187 23-511): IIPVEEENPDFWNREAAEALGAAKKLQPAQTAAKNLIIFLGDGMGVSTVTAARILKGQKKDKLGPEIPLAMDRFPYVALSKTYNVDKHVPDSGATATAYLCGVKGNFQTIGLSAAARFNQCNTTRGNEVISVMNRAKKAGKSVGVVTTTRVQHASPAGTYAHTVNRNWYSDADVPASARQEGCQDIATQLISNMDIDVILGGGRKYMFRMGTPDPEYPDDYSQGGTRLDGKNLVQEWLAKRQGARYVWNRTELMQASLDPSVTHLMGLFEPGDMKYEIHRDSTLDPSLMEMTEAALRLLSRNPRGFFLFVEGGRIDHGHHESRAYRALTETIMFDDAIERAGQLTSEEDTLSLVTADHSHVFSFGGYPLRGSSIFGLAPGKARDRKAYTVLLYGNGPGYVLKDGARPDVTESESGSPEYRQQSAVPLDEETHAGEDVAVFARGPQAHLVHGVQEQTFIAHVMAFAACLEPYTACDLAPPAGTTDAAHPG
Experimental: as §2

[6] = target: T5, Human Notch4-NRR domain fused with secretory alkaline phosphatase (SEAP) and 10× histidine tag (human, UniProt Q99466 1046-1445); assay: as above
T5 construct: 1 is named; not shown: secretory alkaline phosphatase (SEAP); 10x histidine tag
T5 sequence: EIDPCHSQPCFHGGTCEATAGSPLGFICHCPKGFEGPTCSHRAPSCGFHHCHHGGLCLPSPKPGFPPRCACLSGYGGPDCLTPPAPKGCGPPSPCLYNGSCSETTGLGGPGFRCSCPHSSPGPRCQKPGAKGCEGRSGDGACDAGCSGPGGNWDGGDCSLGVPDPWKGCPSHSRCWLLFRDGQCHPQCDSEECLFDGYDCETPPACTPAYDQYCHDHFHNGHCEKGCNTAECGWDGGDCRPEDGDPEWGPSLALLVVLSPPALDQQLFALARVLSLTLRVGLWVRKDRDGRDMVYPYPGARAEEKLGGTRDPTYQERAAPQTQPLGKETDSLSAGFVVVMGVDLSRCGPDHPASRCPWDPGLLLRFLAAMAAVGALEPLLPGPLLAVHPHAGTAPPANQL
Experimental: as §2

[7] = target: T6, Human Notch4-NRR-SEAP-HA-His (human, UniProt Q99466 1046-1445); assay: SPR (BIAcore T100); antibody captured by anti-human IgG Fc on CM5, NRR-SEAP-HA-His injected at 6 concentrations
T6 construct: also called human Notch4-NRR-SEAP-His; human Notch4 NRR domain; not shown: secretory alkaline phosphatase (SEAP); hemagglutinin (HA) tag; histidine tag (x10)
T6 sequence: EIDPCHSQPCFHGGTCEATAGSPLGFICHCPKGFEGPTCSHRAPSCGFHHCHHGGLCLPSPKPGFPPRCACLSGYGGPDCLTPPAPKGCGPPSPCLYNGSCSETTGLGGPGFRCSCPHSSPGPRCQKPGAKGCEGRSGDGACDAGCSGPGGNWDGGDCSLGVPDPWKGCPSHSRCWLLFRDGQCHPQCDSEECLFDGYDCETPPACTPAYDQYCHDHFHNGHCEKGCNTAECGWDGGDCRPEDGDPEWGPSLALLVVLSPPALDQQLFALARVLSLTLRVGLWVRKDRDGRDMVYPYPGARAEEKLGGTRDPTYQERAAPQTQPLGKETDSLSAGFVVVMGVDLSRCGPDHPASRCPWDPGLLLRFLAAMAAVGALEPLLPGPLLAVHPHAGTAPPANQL
Experimental: Kinetics analysis using BIAcore T100 was performed for the interaction between the NRR domain of human Notch isotypes (Notch1, Notch2, Notch3, and Notch4) and Antibody B. Antibody B was purified from the culture supernatant of a stable expression CHO cell line of Antibody B with sequential use of protein A affinity chromatography, Capto Q anion exchange chromatography, and UNOsphere S cation exchange chromatography. Fusion proteins of Human Notch1 NRR domain (Genbank Accession No. 017617; sequence positions 1307-1733), human Notch2 NRR domain (Genbank Accession No. 024408; sequence positions 1239-1650), human Notch3 NRR domain (Genbank Accession No. 000435; sequence positions 1246-1641), and human Notch4 NRR domain (Genbank Accession No. NP_004548.3; sequence positions 1046-1445) with secretory alkaline phosphatase (SEAP), a hemagglutinin (HA) tag, and a histidine tag (×10) were created, and these were purified with HisTrap™ Fast Flow column (GE Healthcare). The interaction between Antibody B and the NRR domain of each human Notch isotypes was measured with the following method. The purified Antibody B was captured by anti-human IgG Fc antibody fixed on a CM5 sensor chip (GE Healthcare). The purified NRR domain of each human Notch isotypes was injected onto the sensor chip at 6 different concentrations, and the interaction and dissociation with the antibody were observed as per operation manual.

[8] = target: T1, Human Notch4-NRR domain Fc fusion …; assay: SPR (Biacore); Notch4-NRR-Fc captured by another anti-Notch4 antibody on CM5, antibody injected
Experimental: as §1

[9] = target: T1, Human Notch4-NRR domain Fc fusion …; assay: SPR (Biacore) as for Table 30; Notch4-NRR-Fc captured, antibody injected; averaged, N=2
Experimental: as §1

[10] = target: T1, Human Notch4-NRR domain Fc fusion …; assay: SPR (Biacore) as for Table 30; Notch4-NRR-Fc captured, antibody injected; averaged, N=5
Experimental: as §1

Kd [1]: 0.321 nM
koff [1]: 0.000742 s⁻¹
kon [1]: 2.35e+06 M⁻¹ s⁻¹
B1: Mouse anti-human Notch4 monoclonal antibody 6-3-A6 (antibody, V domains shown)
VH: EVQLVESGGGLVQPGGSLKLSCAASGFTFSSYGMSWVRQTPDKRLELVATINSNGGRTYYPDSVKGRFTISRDNAKNTLYLQMSSLKSEDTAMYYCARDQGFAYWGQGTLVTVSA
VL: DIVMTQSHKFMSTSVGDRVSITCKASQDVGTAVAWYQQKPGQSPKLLIYWASTRHTGVPDRFTGSGSGTDFTLTISNVQSEDLADYFCQQYSSYPWTFGGGTKLEIK
notes: Mouse hybridoma antibody; cloned with primers for mouse IgG1 heavy chain and mouse Igκ light chain; also called Original

% of Control (relative luminescence), Notch4-GAL4 luciferase reporter assay, antibody at 10 µg/ml [2]: 10.8 % of Control
IC50 of relative luminescence (%), Notch4-GAL4 luciferase reporter assay, reporter cells stimulated with solid phased DLL4 [3]: 0.011 µg/mL
Kd [4]: 11.2 nM
koff [4]: 0.00727 s⁻¹
kon [4]: 601000 M⁻¹ s⁻¹
Kd [5]: 3.62 nM
koff [5]: 0.00106 s⁻¹
kon [5]: 295000 M⁻¹ s⁻¹
Kd [6]: 3.74 nM
koff [6]: 0.00118 s⁻¹
kon [6]: 317000 M⁻¹ s⁻¹
Kd [7]: 30.5 nM
koff [7]: 0.000831 s⁻¹
kon [7]: 27200 M⁻¹ s⁻¹
Kd [8]: 0.441 nM
koff [8]: 0.00071 s⁻¹
kon [8]: 1.66e+06 M⁻¹ s⁻¹
Kd [9]: 0.331 nM
koff [9]: 0.000822 s⁻¹
kon [9]: 2.48e+06 M⁻¹ s⁻¹
B2: Antibody B (antibody, human IgG2, kappa)
heavy: EVQLVESGGGLVQPGGSLRLSCAASGFTFSSYGMSWVRQAPGKGLELVATINSNGGRTYYPDSVKGRFTISRDNSKNTLYLQMGSLKAEDMAVYYCARDQGFAYWGQGTLVTVSSASTKGPSVFPLAPCSRSTSESTAALGCLVKDYFPEPVTVSWNSGALTSGVHTFPAVLQSSGLYSLSSVVTVPSSNFGTQTYTCNVDHKPSNTKVDKTVERKCCVECPPCPAPPAAAPSVFLFPPKPKDTLMISRTPEVTCVVVDVSHEDPEVQFNWYVDGVEVHNAKTKPREEQFNSTFRVVSVLTVVHQDWLNGKEYKCKVSNKGLPAPIEKTISKTKGQPREPQVYTLPPSREEMTKNQVSLTCLVKGFYPSDIAVEWESNGQPENNYKTTPPMLDSDGSFFLYSKLTVDKSRWQQGNVFSCSVMHEALHNHYTQKSLSLSPG
light: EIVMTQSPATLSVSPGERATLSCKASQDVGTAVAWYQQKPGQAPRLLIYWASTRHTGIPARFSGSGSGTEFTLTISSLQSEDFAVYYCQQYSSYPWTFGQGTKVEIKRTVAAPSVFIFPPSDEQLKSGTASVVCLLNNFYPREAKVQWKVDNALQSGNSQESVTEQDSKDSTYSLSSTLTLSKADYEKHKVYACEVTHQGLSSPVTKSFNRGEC
notes: Humanized IgG2 (V234A, G237A)/κ; also called HK3L3 (Lys-); HK3L3(Lys-)

More lines, now with the values behind:

B3: Antibody D (antibody, human IgG2, kappa)
heavy: EVQLVESGGGLVQPGGSLRLSCAASGFTFSSYGMSWVRQAPGKGLELVATINSNGGRTYYPDSVKGRFTISRDNSKNTLYLQMGSLKAEDMAVYYCARDQGFAYWGQGTLVTVSSASTKGPSVFPLAPCSRSTSESTAALGCLVKDYFPEPVTVSWNSGALTSGVHTFPAVLQSSGLYSLSSVVTVPSSNFGTQTYTCNVDHKPSNTKVDKTVERKCCVECPPCPAPPAAAPSVFLFPPKPKDTLMISRTPEVTCVVVDVSHEDPEVQFNWYVDGVEVHNAKTKPREEQFNSTFRVVSVLTVVHQDWLNGKEYKCKVSNKGLPAPIEKTISKTKGQPREPQVYTLPPSREEMTKNQVSLTCLVKGFYPSDIAVEWESNGQPENNYKTTPPMLDSDGSFFLYSKLTVDKSRWQQGNVFSCSVMHEALHNHYTQKSLSLSPG
light: DIQMTQSPSSLSASVGDRVTITCKASQDVGTAVAWYQQKPGKSPKLLIYWASTRHTGVPSRFSGSGSGTDFTLTISSLQPEDVATYFCQQYSSYPWTFGQGTKVEIKRTVAAPSVFIFPPSDEQLKSGTASVVCLLNNFYPREAKVQWKVDNALQSGNSQESVTEQDSKDSTYSLSSTLTLSKADYEKHKVYACEVTHQGLSSPVTKSFNRGEC
notes: Humanized IgG2 (V234A, G237A)/κ; also called HK3L5 (Lys-); HK3L5(Lys-)
% of Control (relative luminescence), Notch4-GAL4 luciferase reporter assay, antibody at 10 µg/ml [2]: 21 % of Control
Kd [10]: 0.529 nM
koff [10]: 0.00109 s⁻¹
kon [10]: 2.1e+06 M⁻¹ s⁻¹
Kd [8]: 0.475 nM
koff [8]: 0.000863 s⁻¹
kon [8]: 1.82e+06 M⁻¹ s⁻¹

B4: Antibody G (antibody, human IgG2, kappa)
heavy: EVQLVESGGGLVQPGGSLRLSCAASGFTFSSYGMSWVRQAPGKGLELVATINSNGGRTYYPDSVKGRFTISRDNSKNTLYLQMGSLKAEDMAVYYCARDQGFAYWGQGTLVTVSSASTKGPSVFPLAPCSRSTSESTAALGCLVKDYFPEPVTVSWNSGALTSGVHTFPAVLQSSGLYSLSSVVTVPSSNFGTQTYTCNVDHKPSNTKVDKTVERKCCVECPPCPAPPAAAPSVFLFPPKPKDTLMISRTPEVTCVVVDVSHEDPEVQFNWYVDGVEVHNAKTKPREEQFNSTFRVVSVLTVVHQDWLNGKEYKCKVSNKGLPAPIEKTISKTKGQPREPQVYTLPPSREEMTKNQVSLTCLVKGFYPSDIAVEWESNGQPENNYKTTPPMLDSDGSFFLYSKLTVDKSRWQQGNVFSCSVMHEALHNHYTQKSLSLSPG
light: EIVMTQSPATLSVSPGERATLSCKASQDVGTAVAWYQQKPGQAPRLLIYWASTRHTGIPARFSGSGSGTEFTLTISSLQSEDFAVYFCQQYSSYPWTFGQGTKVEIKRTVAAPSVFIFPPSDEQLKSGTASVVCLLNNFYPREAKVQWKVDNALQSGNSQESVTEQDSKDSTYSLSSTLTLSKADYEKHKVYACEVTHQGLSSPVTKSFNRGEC
notes: Humanized IgG2 (V234A, G237A)/κ; also called HK3L4 (Lys-); HK3L4(Lys-)
% of Control (relative luminescence), Notch4-GAL4 luciferase reporter assay, antibody at 10 µg/ml [2]: 13 % of Control
Kd [10]: 0.76 nM
koff [10]: 0.00124 s⁻¹
kon [10]: 1.86e+06 M⁻¹ s⁻¹
Kd [8]: 0.633 nM
koff [8]: 0.00111 s⁻¹
kon [8]: 1.78e+06 M⁻¹ s⁻¹
